Assay [1] addresses T1, 6His-IscS (E. coli, UniProt P0A6B7 1-404).
T1 construct: IscS cysteine desulfurase, E. coli; IscS-coding region (primers OSD56/OSD57, start codon to stop codon, 1,248 bp fragment) between EcoRI and XhoI of pET6His-TEV; The vector's name tells a TEV site between the 6His tag and the protein; no cleavage is told; also called pET-6His-TEV-iscS; source: E. coli MG1655(DE3), purified (Ni-nitrilotriacetic acid agarose); not shown: 6His, N-terminal, kept

For assay [2], the target named is T1, 6His-IscS. The assay can be described thus: native gel or EMSA; 6His-IscS 15 µM with 6His-ACP or variant 30 µM, 20 min at 37°C in 100 mM Hepes, 150 mM NaCl; non-denaturing 12% PAGE, Coomassie Blue. Particulars: both partners purified.

T1 sequence (P0A6B7 whole entry, the tested form may be a part): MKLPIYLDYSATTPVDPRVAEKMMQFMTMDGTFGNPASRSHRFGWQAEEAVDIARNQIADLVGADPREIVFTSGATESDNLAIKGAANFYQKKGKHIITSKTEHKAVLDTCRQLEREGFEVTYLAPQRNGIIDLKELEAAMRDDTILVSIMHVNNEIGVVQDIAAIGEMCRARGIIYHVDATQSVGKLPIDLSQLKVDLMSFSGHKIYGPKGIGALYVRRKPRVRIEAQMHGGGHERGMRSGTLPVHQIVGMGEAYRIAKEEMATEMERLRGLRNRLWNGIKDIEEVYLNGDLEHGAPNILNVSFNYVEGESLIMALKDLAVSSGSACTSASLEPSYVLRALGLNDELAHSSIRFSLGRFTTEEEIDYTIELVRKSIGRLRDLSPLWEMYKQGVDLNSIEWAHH

The molecule “acylated 6His-ACP (from UniProt P0A6A8 1-78) (natural protein)” displayed a cysteine desulfurase activity of IscS (methylene blue assay), relative to IscS alone in assay [1] of 3 fold.

B1: 6His-ACP (natural protein, E. coli, UniProt P0A6A8 1-78, looked up)
chain: MSTIEERVKKIIGEQLGVKQEEVTNNASFVEDLGADSLDTVELVMALEEEFDTEIPDEEAEKITTVQAAIDYINGHQA
modifications: preparation expected to comprise a mixture of apo-ACP, holo-ACP (phosphopantetheine-bound ACP, on Ser36) and a minor fraction of acylated ACP
notes: acyl carrier protein (ACP), E. coli; ACP-coding region (primers OSD146/OSD147, start codon to stop codon, 263 bp fragment) between EcoRI and XhoI of pET6His-TEV; The vector's name tells a TEV site between the 6His tag and the protein; no cleavage is told; also called ACPWT; wild-type ACP; source: E. coli MG1655(DE3), 10 mM pantothenate in the culture, purified (Ni-nitrilotriacetic acid agarose); …
As to B1, the binding result in assay [2] is on record as “binds”.

Source of the values: paper PMC13343975, “A connection between two ancient and essential cellular processes, iron-sulfur protein biogenesis and fatty acid synthesis, in Escherichia coli” (mBio, 2026).
